Target: SARS-CoV-2 3CL^pro enzyme (Recombinant derived from Escherichia coli, ab277614, ABCAM; SEQ ID NO:2) (SARS-CoV-2) (UniProt P0DTC1)
Experiment: cell-based or functional assay

“myoglobin antibody (Monoclonal rabbit-derived, ab77232, ABCAM; binding to SEQ ID NO:5)” gave an oxidation peak shift (ΔEPeak) of pBQ of 0 mV.

Source: patent publication US20240361320A1
